Reference: paper PMC4995097, “Talin-KANK1 interaction controls the recruitment of cortical microtubule stabilizing complexes to focal adhesions” (eLife, 2016)

Tests used:
GFP-talin1 = experiment: Streptavidin pull down of BioGFP-KANK1 constructs with GFP-talin1, Western blot; assay type: binding, mouse
Description: (§1) BioGFP-tagged KANK1 mutants were constructed using PCR and pBioGFP-C1 vector as previously described ([van der Vaart et al., 2013]). Rescue constructs for BioGFP-tagged KANK1 were either based on the version previously described ([van der Vaart et al., 2013]) or a version obtained by PCR-based mutagenesis of the sequence […] to […]. mCherry-tagged paxillin construct was made by replacing GFP from pQC-GPXN ([Bouchet et al., 2011]) by mCherry (pmCherry-C1, Clontech). TagRFP-tagged paxillin construct was made by PCR-based amplification and cloning in pTagRFP-T-C1 (kind gift from Y. Mimori-Kiyosue, Riken Institute, Japan). HA-tagged KANK1 construct was generated by cloning KANK1 coding sequence into pMT2-SM-HA (gift of C. Hoogenraad, Utrecht University, The Netherlands). pLVX-IRES-Neo (pLVIN) vectors was constructed by cloning the IRES-neomycin resistance cassette from the pQCXIN plasmid (Clontech) into the pLVX-IRES-Puro plasmid (Clontech). […]
(§2) Streptavidin-based pull down assays of biotinylated proteins expressed using pBioGFP-C1 constructs transfected in HEK293T cells was performed and analyzed as previously described ([van der Vaart et al., 2013]). […] For RP-nanoLC-MS/MS, samples were resuspended in 10% formic acid (FA) / 5% DMSO and was analyzed using a Proxeon Easy-nLC100 (Thermo Scientific) connected to an Orbitrap Q-Exactive mass spectrometer. […]

HA-KANK1 = experiment: Streptavidin pull down of BioGFP-talin1 constructs with HA-KANK1, Western blot; assay type: binding; conditions: HEK293T cells
Description: as §1, §2

B1: KANK1: full-length KANK1, BioGFP- or GFP-tagged; siRNA-resistant version for rescue (protein)
chain: MAHTTKVNGSASGKAGDILSGDQDKEQKDPYFVETPYGYQLDLDFLKYVDDIQKGNTIKRLNIQKRRKPSVPCPEPRTTSGQQGIWTSTESLSSSNSDDNKQCPNFLIARSQVTSTPISKPPPPLETSLPFLTIPENRQLPPPSPQLPKHNLHVTKTLMETRRRLEQERATMQMTPGEFRRPRLASFGGMGTTSSLPSFVGSGNHNPAKHQLQNGYQGNGDYGSYAPAAPTTSSMGSSIRHSPLSSGISTPVTNVSPMHLQHIREQMAIALKRLKELEEQVRTIPVLQVKISVLQEEKRQLVSQLKNQRAASQINVCGVRKRSYSAGNASQLEQLSRARRSGGELYIDYEEEEMETVEQSTQRIKEFRQLTADMQALEQKIQDSSCEASSELRENGECRSVAVGAEENMNDIVVYHRGSRSCKDAAVGTLVEMRNCGVSVTEAMLGVMTEADKEIELQQQTIESLKEKIYRLEVQLRETTHDREMTKLKQELQAAGSRKKVDKATMAQPLVFSKVVEAVVQTRDQMVGSHMDLVDTCVGTSVETNSVGISCQPECKNKVVGPELPMNWWIVKERVEMHDRCAGRSVEMCDKSVSVEVSVCETGSNTEESVNDLTLLKTNLNLKEVRSIGCGDCSVDVTVCSPKECASRGVNTEAVSQVEAAVMAVPRTADQDTSTDLEQVHQFTNTETATLIESCTNTCLSTLDKQTSTQTVETRTVAVGEGRVKDINSSTKTRSIGVGTLLSGHSGFDRPSAVKTKESGVGQININDNYLVGLKMRTIACGPPQLTVGLTASRRSVGVGDDPVGESLENPQPQAPLGMMTGLDHYIERIQKLLAEQQTLLAENYSELAEAFGEPHSQMGSLNSQLISTLSSINSVMKSASTEELRNPDFQKTSLGKITGNYLGYTCKCGGLQSGSPLSSQTSQPEQEVGTSEGKPISSLDAFPTQEGTLSPVNLTDDQIAAGLYACTNNESTLKSIMKKKDGNKDSNGAKKNLQFVGINGGYETTSSDDSSSDESSSSESDDECDVIEYPLEEEEEEEDEDTRGMAEGHHAVNIEGLKSARVEDEMQVQECEPEKVEIRERYELSEKMLSACNLLKNTINDPKALTSKDMRFCLNTLQHEWFRVSSQKSAIPAMVGDYIAAFEAISPDVLRYVINLADGNGNTALHYSVSHSNFEIVKLLLDADVCNVDHQNKAGYTPIMLAALAAVEAEKDMRIVEELFGCGDVNAKASQAGQTALMLAVSHGRIDMVKGLLACGADVNIQDDEGSTALMCASEHGHVEIVKLLLAQPGCNGHLEDNDGSTALSIALEAGHKDIAVLLYAHVNFAKAQSPGTPRLGRKTSPGPTHRGSFD
modifications: biotinylated on the Bio tag (by BirA); left off: biotinylation (Bio) tag, end not stated, kept | GFP, end not stated, kept
notes: full-length KANK1, BioGFP- or GFP-tagged; siRNA-resistant version for rescue
effect of 4A mutation on interaction with talin1 (in words) (GFP-talin1; 4A mutation introduced into the construct, HEK293T cells, Figure 3A): reduced the interaction of the full-length KANK1 with talin1
interaction with talin1 in pull down (in words) (GFP-talin1; BioGFP-KANK1 constructs co-expressed with GFP-talin1, HEK293T cells): The interaction between KANK1 and talin1 was confirmed by Western blotting
interaction of talin1 constructs with KANK1 (in words) (HA-KANK1): binds to the talin1 rod domain R7
